# Data: doi:10.1101/2024.11.03.621705 (bioRxiv, 2024)
# B1: mouse TRPC5 with a 210-amino-acid C-terminal truncation, with N-terminal 3xFlag tag and MBP (recombinant plasmid FMC5) (domain or fragment, UniProt Q9QX29 1-765, looked up)
# chain: MAQLYYKKVNYSPYRDRIPLQIVRAETELSAEEKAFLSAVEKGDYATVKQALQEAEIYYNVNINCMDPLGRSALLIAIENENLEIMELLLNHSVYVGDALLYAIRKEVVGAVELLLSYRKPSGEKQVPTLMMDTQFSEFTPDITPIMLAAHTNNYEIIKLLVQKRVTIPRPHQIRCNCVECVSSSEVDSLRHSRSRLNIYKALASPSLIALSSEDPILTAFRLGWELKELSKVENEFKAEYEELSQQCKLFAKDLLDQARSSRELEIILNHRDDHSEELDPQKYHDLAKLKVAIKYHQKEFVAQPNCQQLLATLWYDGFPGWRRKHWVVKLLTCMTIGFLFPMLSIAYLISPRSNLGLFIKKPFIKFICHTASYLTFLFMLLLASQHIVRTDLHVQGPPPTVVEWMILPWVLGFIWGEIKEMWDGGFTEYIHDWWNLMDFAMNSLYLATISLKIVAYVKYNGSRPREEWEMWHPTLIAEALFAISNILSSLRLISLFTANSHLGPLQISLGRMLLDILKFLFIYCLVLLAFANGLNQLYFYYETRAIDEPNNCKGIRCEKQNNAFSTLFETLQSLFWSVFGLLNLYVTNVKARHEFTEFVGATMFGTYNVISLVVLLNMLIAMMNNSYQLIADHADIEWKFARTKLWMSYFDEGGTLPPPFNIIPSPKSFLYLGNWFNNTFCPKRDPDGRRRRHNLRSFTERHADSLIQNQHYQEVIRNLVKRYVAAMIRNSKTNEGLTEENFKELKQDISSFRYEVLDLLGNRK
# Molecular target: the molecule itself
# Assay: cryo-EM structure
protein,measurement,value
B1,binding result,binds
